How the values were obtained:
Assay in all cases: pull-down
[1] = target: His6-Spx R112A (Bacillus subtilis) (UniProt O31602)
[2] = target: His6-Spx L114A (Bacillus subtilis) (UniProt O31602)
[3] = target: His6-Spx F113A (Bacillus subtilis) (UniProt O31602)

decrease of YjbH binding compared to the WT [1]: 80%
decrease of YjbH binding compared to the WT [2]: 50%
decrease of YjbH binding compared to the WT [3]: 80%
Substance: Geobacillus thermodenitrificans YjbH (GtYjbH), without tag (natural protein)

Reference: paper PMC4128009
